Literature values, collected in paper PMC4209448 (Scientific Reports, 2014).

Settings: C57BL/6 mice

Substance: Aβ(1–40): amyloid-β(1–40) peptide whose CSF-to-blood efflux half-time is quoted from the literature
- Half-time of efflux from the CSF to blood: 34.63 ± 3.6 min
